Where no end group is shown, it is not given here.
Experiments:
Type in all cases: physicochemical
[1] = Rheological properties of peptide solutions at selected concentrations; conditions: for Loss Modulus (G″) / Storage Modulus (G′): at 1 Pa of oscillation stress; for Max. Viscosity (max η′): from viscosity plots at the range of measured stress
Protocol: Rheological properties were determined for a variety of peptide solutions. […] For example 2% KLD12 (SEQ ID NO:2), 2.5% KLD12 (SEQ ID NO:2), and 1.5% IEIK13 (SEQ ID NO:3) solutions have 2, 3.4, and 3.2 times higher maximum viscosities than 2.5% RADA16 (SEQ ID NO:1), respectively.

[2] = Time sweep tests (rheological strength) before and after autoclave treatment; conditions: time sweep test
Protocol: Rheological properties of certain peptide compositions were determined before and after autoclaving.

[3] = Shear flow test (rheometer DHR-1, 20 mm plates); conditions: for yield stress (shear flow test): shear rate 0.003 to 1000
Protocol: Shear flow tests were performed on peptide solutions using a rheometer (DHR-1, TA Instruments) with 20 mm plates. Results are shown in FIG. 9 for 2.5% RADA16 (SEQ ID NO:1) solutions and FIG. 10 for 1.5% IEIK13 (SEQ ID NO:3) solutions. […] That is, as shear rate increased, their viscosities were dramatically dropped. […] The yield stress was about 40 Pa for 2.5% RADA16 (SEQ ID NO:1) solution and about 60 Pa for 1.5% IEIK13 (SEQ ID NO:3) solution.

[4] = Storage modulus recovery after injection through 30-gauge needle
Protocol: RADA16 (SEQ ID NO:1) was injected through 30-gauge needle so that applied shear stress reduced stiffness of the peptides. The measurements were started 1 minute after the injection.
KLD12 (SEQ ID NO:2) was injected through 30-gauge needle so that the applied shear stress reduced stiffness of the peptides. The measurements were started 1 minute after the injection.
IEIK13 (SEQ ID NO:3) was injected through 30-gauge needle so that the applied shear stress reduced stiffness of the peptides. The measurements were started 1 minute after the injection.
The percentages of recovery back to the original storage modulus at 1 min and 20 min after injection peptide compositions through a 30 gauge needle are listed in Table 2. The recovery rate of IEIK13 (specifically, of a […]; SEQ ID NO:3) was the fastest among the peptide solutions, showing 100% recovery to the original storage modulus in 20 min. […] In some non-limiting embodiments, it may take about 12 to 48 hours for full recovery to an original modulus after passage through a needle (e.g., injection).
Rheological measurements were performed for RADA16 (SEQ ID NO:1) and IEIK13 (SEQ ID NO:3) solutions after injecting them through 30 gauge needles. […] The results are shown in FIG. 6 for RADA16 (SEQ ID NO:1), FIG. 7 for KLD12 (SEQ ID NO:2), and FIG. 8 for IEIK13 (SEQ ID NO:3).

[5] = Apparent viscosity change after passage through membrane shear-thinning unit (container-inversion test)
From the text: The top row includes pictures of 2.5% KLD12 (SEQ ID NO:2). The bottom row includes pictures of 1.5% IEIK13 (SEQ ID NO:3). The solutions in the most left column stay on the top of the vials. The solutions in the most right column (after applying shear stress) have low viscosity, so that most materials are located at the bottom of vials.
To examine the effect of pore size in the shear-thinning unit on viscosity change of viscous peptide solutions, 2.5% KLD12 (SEQ ID NO:2) and 1.5% IEIK13 (SEQ ID NO:3) solutions were passed through selected pore sizes, and their apparent viscosity changes were evaluated. 2.5% KLD12 (SEQ ID NO:2) solutions passed through the shear-thinning unit with the pore sizes of 41 μm, 20 μm, and 5 μm.

[6] = 1%, 1 min after injection through 30-gauge needle
[7] = 1%, 20 min after injection through 30-gauge needle
[8] = 2.5%, 1 min after injection through 30-gauge needle
[9] = 2.5%, 20 min after injection through 30-gauge needle

In the case of “Arg-Ala-Asp-Ala-Arg-Ala-Asp-Ala-Arg-Ala-Asp-Ala-Arg-Ala-Asp-Ala [RADA16]”, the “Yield Stress” value ([1]; Conc. 1%) is reported as 15.9 Pa, the “Loss Modulus (G″)” value ([1]; Conc. 1%) is reported as 12 Pa and the “Storage Modulus (G′)” value ([1]; Conc. 1%) is reported as 74 Pa. The “Max. Viscosity (max η′)” value ([1]; Conc. 1%) was 2.3 Pa · s, the “Yield Stress” value ([1]; Conc. 1.5%) was 20.0 Pa and the “Loss Modulus (G″)” value ([1]; Conc. 1.5%) was 30 Pa. The “Storage Modulus (G′)” value ([1]; Conc. 1.5%) was 158 Pa, the “Max. Viscosity (max η′)” value ([1]; Conc. 1.5%) was 3.4 Pa · s and the “Yield Stress” value ([1]; Conc. 2%) was 31.6 Pa. The “Loss Modulus (G″)” value ([1]; Conc. 2%) was 39 Pa, the “Storage Modulus (G′)” value ([1]; Conc. 2%) was 217 Pa and the “Max. Viscosity (max η′)” value ([1]; Conc. 2%) was 4.0 Pa · s. For the same substance, the “Yield Stress” value ([1]; Conc. 2.5%) was 50.1 Pa, the “Loss Modulus (G″)” value ([1]; Conc. 2.5%) was 53 Pa and the “Storage Modulus (G′)” value ([1]; Conc. 2.5%) was 352 Pa. For the same substance, the “Max. Viscosity (max η′)” value ([1]; Conc. 2.5%) was 5.6 Pa · s, the “rheological strength after autoclaving versus non-autoclaved” value [2] was “dramatic decrease of rheological strength” and the “flow behaviour with increasing shear rate” value ([3]; 2.5% solution) was “typical shear thinning properties”. The “yield stress (shear flow test)” value ([3]; 2.5% solution) was “about 40 Pa”, the Storage modulus [4, 6] was 6.8 Pa and the Storage modulus [4, 7] was 40 Pa. For the same substance, the Storage modulus ([4]; 1%, Before injection) was 74 Pa, the Storage modulus [4, 8] was 67 Pa and the Storage modulus [4, 9] was 196 Pa. For the same substance, the Storage modulus ([4]; 2.5%, Before injection) was 352 Pa.

For “Ile-Glu-Ile-Lys-Ile-Glu-Ile-Lys-Ile-Glu-Ile-Lys-Ile [IEIK13]”, the “times higher maximum viscosity than 2.5% RADA16” value ([1]; 1.5% solution) was 3.2 times, the “Yield Stress” value ([1]; Conc. 1%) was 39.8 Pa and the “Loss Modulus (G″)” value ([1]; Conc. 1%) was 77 Pa. For the same substance, the “Storage Modulus (G′)” value ([1]; Conc. 1%) was 719 Pa, the “Max. Viscosity (max η′)” value ([1]; Conc. 1%) was 12.9 Pa · s and the “Yield Stress” value ([1]; Conc. 1.5%) was 50.1 Pa. For the same substance, the “Loss Modulus (G″)” value ([1]; Conc. 1.5%) was 94 Pa, the “Storage Modulus (G′)” value ([1]; Conc. 1.5%) was 1092 Pa and the “Max. Viscosity (max η′)” value ([1]; Conc. 1.5%) was 18.0 Pa · s. The “Loss Modulus (G″)” value ([1]; Conc. 2%) was 138 Pa, the “Storage Modulus (G′)” value ([1]; Conc. 2%) was 1708 Pa and the “Yield Stress” value ([1]; Conc. 2.5%) was 100 Pa. For the same substance, the “Loss Modulus (G″)” value ([1]; Conc. 2.5%) was 174 Pa, the “Storage Modulus (G′)” value ([1]; Conc. 2.5%) was 2213 Pa and the “Max. Viscosity (max η′)” value ([1]; Conc. 2.5%) was 40.2 Pa · s. The “rheological strength after autoclaving versus non-autoclaved” value [2] was “almost identical rheological strength”, the “flow behaviour with increasing shear rate” value ([3]; 1.5% solution) was “typical shear thinning properties” and the “yield stress (shear flow test)” value ([3]; 1.5% solution) was “about 60 Pa”. The Storage modulus [4, 8] was 632 Pa, the Storage modulus [4, 9] was 2248 Pa and the Storage modulus ([4]; 2.5%, Before injection) was 2213 Pa. The “apparent viscosity change after shear-thinning unit” value (“apparent viscosity change” below) ([5]; 1.5% solution, membrane with a pore size of 5 μm) was “reduced significantly”.

In the case of “KLDLKLDLKLDL [KLD12, self-assembling peptide with repeats of KLDL, tested as solutions of 1 to 2.5%]”, the “times higher maximum viscosity than 2.5% RADA16” value ([1]; 2% solution) is reported as 2 times, the “times higher maximum viscosity than 2.5% RADA16” value ([1]; 2.5% solution) is reported as 3.4 times and the “Yield Stress” value ([1]; Conc. 1%) is reported as 25.1 Pa. The “Loss Modulus (G″)” value ([1]; Conc. 1%) was 25 Pa, the “Storage Modulus (G′)” value ([1]; Conc. 1%) was 140 Pa and the “Max. Viscosity (max η′)” value ([1]; Conc. 1%) was 2.0 Pa · s. The “Yield Stress” value ([1]; Conc. 1.5%) was 39.8 Pa, the “Loss Modulus (G″)” value ([1]; Conc. 1.5%) was 46 Pa and the “Storage Modulus (G′)” value ([1]; Conc. 1.5%) was 292 Pa. The “Max. Viscosity (max η′)” value ([1]; Conc. 1.5%) was 7.1 Pa · s, the “Yield Stress” value ([1]; Conc. 2%) was 79.4 Pa and the “Loss Modulus (G″)” value ([1]; Conc. 2%) was 63 Pa. For the same substance, the “Storage Modulus (G′)” value ([1]; Conc. 2%) was 573 Pa, the “Max. Viscosity (max η′)” value ([1]; Conc. 2%) was 11.0 Pa · s and the “Yield Stress” value ([1]; Conc. 2.5%) was 100 Pa. The “Loss Modulus (G″)” value ([1]; Conc. 2.5%) was 93 Pa, the “Storage Modulus (G′)” value ([1]; Conc. 2.5%) was 846 Pa and the “Max. Viscosity (max η′)” value ([1]; Conc. 2.5%) was 19.0 Pa · s. For the same substance, the Storage modulus [4, 6] was 0.68 Pa, the Storage modulus [4, 7] was 59 Pa and the Storage modulus ([4]; 1%, Before injection) was 140 Pa. For the same substance, the Storage modulus [4, 8] was 57 Pa, the Storage modulus [4, 9] was 196 Pa and the Storage modulus ([4]; 2.5%, Before injection) was 846 Pa. For the same substance, the “apparent viscosity change” value ([5]; 2.5% solution, pore size of 120 μm) was “remained too viscous to flow down” and the “apparent viscosity change” value ([5]; 2.5% solution, pore sizes of 41 μm, 20 μm, and 5 μm) was “decreased enough to flow down”.

From patent publication US12115264B2, “Sterilization and filtration of peptide compositions” (3-D Matrix, Ltd., priority 2014, dated 2024)
